From patent US6482925

Biological target: MHC class II molecules on Daudi B cells
Assay: 51Cr Daudi cell adhesion to transfected Cos-7 cells

fold increase of binding against wild-type LAG-3 [fold] | Binder
> 3 | LAG-3 mutant R75E (receptor) LQPGAEVPVVWAQEGAPAQLPCSPTIPLQDLSLLRRAGVTWQHQPDSGPPAAAPGHPLAPGPHPAAPSSWGPRPERYTVLSVGPGGLRSGRLPLQPRVQLDERGRQRGDFSLWLRPARRADAGEYRAAVHLRDRALSCRLRLRLGQASMTASPPGSLRASDWVILNCSFSRPDRPASVHWFRNRGQGRVPVRESPHHHLAESFLFLPQVSPMDSGPWGCILTYRDGFNVSIMYNLTVLGLEPPTPLTVYAGAGSRVGLPCRLPAGVGTRSFLTAKWTPPGGGPDLLVTGDNGDFTLRLEDVSQAQAGTYTCHIHLQEQQLNATVTLAIITVTPKSFGSPGSLGKLLCEVTPVSGQERFVWSSLDTPSQRSFSGPWLEAQEAQLLSQPWQCQLYQGERLLGAAVYFTELSSPGAQRSGRAPGALPAGHLLLFLTLGVLSLLLLVTGAFGFHLWRRQWRPRRFSALEQGIHPRRLRAR
> 3 | LAG-3 mutant R76E (receptor) LQPGAEVPVVWAQEGAPAQLPCSPTIPLQDLSLLRRAGVTWQHQPDSGPPAAAPGHPLAPGPHPAAPSSWGPRPREYTVLSVGPGGLRSGRLPLQPRVQLDERGRQRGDFSLWLRPARRADAGEYRAAVHLRDRALSCRLRLRLGQASMTASPPGSLRASDWVILNCSFSRPDRPASVHWFRNRGQGRVPVRESPHHHLAESFLFLPQVSPMDSGPWGCILTYRDGFNVSIMYNLTVLGLEPPTPLTVYAGAGSRVGLPCRLPAGVGTRSFLTAKWTPPGGGPDLLVTGDNGDFTLRLEDVSQAQAGTYTCHIHLQEQQLNATVTLAIITVTPKSFGSPGSLGKLLCEVTPVSGQERFVWSSLDTPSQRSFSGPWLEAQEAQLLSQPWQCQLYQGERLLGAAVYFTELSSPGAQRSGRAPGALPAGHLLLFLTLGVLSLLLLVTGAFGFHLWRRQWRPRRFSALEQGIHPRRLRAR

Biological target: MHC class II molecules on Daudi B cells
Assay: 51Cr Daudi cell adhesion to transfected Cos-7 cells; cpm relative to wild-type, background not subtracted

Binder | Adhesion (relative to wild-type LAG-3)
LAG-3 mutant H56F (receptor) LQPGAEVPVVWAQEGAPAQLPCSPTIPLQDLSLLRRAGVTWQHQPDSGPPAAAPGFPLAPGPHPAAPSSWGPRPRRYTVLSVGPGGLRSGRLPLQPRVQLDERGRQRGDFSLWLRPARRADAGEYRAAVHLRDRALSCRLRLRLGQASMTASPPGSLRASDWVILNCSFSRPDRPASVHWFRNRGQGRVPVRESPHHHLAESFLFLPQVSPMDSGPWGCILTYRDGFNVSIMYNLTVLGLEPPTPLTVYAGAGSRVGLPCRLPAGVGTRSFLTAKWTPPGGGPDLLVTGDNGDFTLRLEDVSQAQAGTYTCHIHLQEQQLNATVTLAIITVTPKSFGSPGSLGKLLCEVTPVSGQERFVWSSLDTPSQRSFSGPWLEAQEAQLLSQPWQCQLYQGERLLGAAVYFTELSSPGAQRSGRAPGALPAGHLLLFLTLGVLSLLLLVTGAFGFHLWRRQWRPRRFSALEQGIHPRRLRAR | 0.89
LAG-3 mutant D109E (receptor) LQPGAEVPVVWAQEGAPAQLPCSPTIPLQDLSLLRRAGVTWQHQPDSGPPAAAPGHPLAPGPHPAAPSSWGPRPRRYTVLSVGPGGLRSGRLPLQPRVQLDERGRQRGEFSLWLRPARRADAGEYRAAVHLRDRALSCRLRLRLGQASMTASPPGSLRASDWVILNCSFSRPDRPASVHWFRNRGQGRVPVRESPHHHLAESFLFLPQVSPMDSGPWGCILTYRDGFNVSIMYNLTVLGLEPPTPLTVYAGAGSRVGLPCRLPAGVGTRSFLTAKWTPPGGGPDLLVTGDNGDFTLRLEDVSQAQAGTYTCHIHLQEQQLNATVTLAIITVTPKSFGSPGSLGKLLCEVTPVSGQERFVWSSLDTPSQRSFSGPWLEAQEAQLLSQPWQCQLYQGERLLGAAVYFTELSSPGAQRSGRAPGALPAGHLLLFLTLGVLSLLLLVTGAFGFHLWRRQWRPRRFSALEQGIHPRRLRAR | 0.18
LAG-3 double mutant D133A/R134A (receptor) LQPGAEVPVVWAQEGAPAQLPCSPTIPLQDLSLLRRAGVTWQHQPDSGPPAAAPGHPLAPGPHPAAPSSWGPRPRRYTVLSVGPGGLRSGRLPLQPRVQLDERGRQRGDFSLWLRPARRADAGEYRAAVHLRAAALSCRLRLRLGQASMTASPPGSLRASDWVILNCSFSRPDRPASVHWFRNRGQGRVPVRESPHHHLAESFLFLPQVSPMDSGPWGCILTYRDGFNVSIMYNLTVLGLEPPTPLTVYAGAGSRVGLPCRLPAGVGTRSFLTAKWTPPGGGPDLLVTGDNGDFTLRLEDVSQAQAGTYTCHIHLQEQQLNATVTLAIITVTPKSFGSPGSLGKLLCEVTPVSGQERFVWSSLDTPSQRSFSGPWLEAQEAQLLSQPWQCQLYQGERLLGAAVYFTELSSPGAQRSGRAPGALPAGHLLLFLTLGVLSLLLLVTGAFGFHLWRRQWRPRRFSALEQGIHPRRLRAR | 0.78
LAG-3 mutant D225L (receptor) LQPGAEVPVVWAQEGAPAQLPCSPTIPLQDLSLLRRAGVTWQHQPDSGPPAAAPGHPLAPGPHPAAPSSWGPRPRRYTVLSVGPGGLRSGRLPLQPRVQLDERGRQRGDFSLWLRPARRADAGEYRAAVHLRDRALSCRLRLRLGQASMTASPPGSLRASDWVILNCSFSRPDRPASVHWFRNRGQGRVPVRESPHHHLAESFLFLPQVSPMDSGPWGCILTYRLGFNVSIMYNLTVLGLEPPTPLTVYAGAGSRVGLPCRLPAGVGTRSFLTAKWTPPGGGPDLLVTGDNGDFTLRLEDVSQAQAGTYTCHIHLQEQQLNATVTLAIITVTPKSFGSPGSLGKLLCEVTPVSGQERFVWSSLDTPSQRSFSGPWLEAQEAQLLSQPWQCQLYQGERLLGAAVYFTELSSPGAQRSGRAPGALPAGHLLLFLTLGVLSLLLLVTGAFGFHLWRRQWRPRRFSALEQGIHPRRLRAR | 0.89
LAG-3 mutant H63A (receptor) LQPGAEVPVVWAQEGAPAQLPCSPTIPLQDLSLLRRAGVTWQHQPDSGPPAAAPGHPLAPGPAPAAPSSWGPRPRRYTVLSVGPGGLRSGRLPLQPRVQLDERGRQRGDFSLWLRPARRADAGEYRAAVHLRDRALSCRLRLRLGQASMTASPPGSLRASDWVILNCSFSRPDRPASVHWFRNRGQGRVPVRESPHHHLAESFLFLPQVSPMDSGPWGCILTYRDGFNVSIMYNLTVLGLEPPTPLTVYAGAGSRVGLPCRLPAGVGTRSFLTAKWTPPGGGPDLLVTGDNGDFTLRLEDVSQAQAGTYTCHIHLQEQQLNATVTLAIITVTPKSFGSPGSLGKLLCEVTPVSGQERFVWSSLDTPSQRSFSGPWLEAQEAQLLSQPWQCQLYQGERLLGAAVYFTELSSPGAQRSGRAPGALPAGHLLLFLTLGVLSLLLLVTGAFGFHLWRRQWRPRRFSALEQGIHPRRLRAR | 0.83

Continued, values first:

Adhesion (relative to wild-type LAG-3) | Binder
4.1 | LAG-3 mutant R75E (receptor) LQPGAEVPVVWAQEGAPAQLPCSPTIPLQDLSLLRRAGVTWQHQPDSGPPAAAPGHPLAPGPHPAAPSSWGPRPERYTVLSVGPGGLRSGRLPLQPRVQLDERGRQRGDFSLWLRPARRADAGEYRAAVHLRDRALSCRLRLRLGQASMTASPPGSLRASDWVILNCSFSRPDRPASVHWFRNRGQGRVPVRESPHHHLAESFLFLPQVSPMDSGPWGCILTYRDGFNVSIMYNLTVLGLEPPTPLTVYAGAGSRVGLPCRLPAGVGTRSFLTAKWTPPGGGPDLLVTGDNGDFTLRLEDVSQAQAGTYTCHIHLQEQQLNATVTLAIITVTPKSFGSPGSLGKLLCEVTPVSGQERFVWSSLDTPSQRSFSGPWLEAQEAQLLSQPWQCQLYQGERLLGAAVYFTELSSPGAQRSGRAPGALPAGHLLLFLTLGVLSLLLLVTGAFGFHLWRRQWRPRRFSALEQGIHPRRLRAR
2.95 | LAG-3 mutant R76E (receptor) LQPGAEVPVVWAQEGAPAQLPCSPTIPLQDLSLLRRAGVTWQHQPDSGPPAAAPGHPLAPGPHPAAPSSWGPRPREYTVLSVGPGGLRSGRLPLQPRVQLDERGRQRGDFSLWLRPARRADAGEYRAAVHLRDRALSCRLRLRLGQASMTASPPGSLRASDWVILNCSFSRPDRPASVHWFRNRGQGRVPVRESPHHHLAESFLFLPQVSPMDSGPWGCILTYRDGFNVSIMYNLTVLGLEPPTPLTVYAGAGSRVGLPCRLPAGVGTRSFLTAKWTPPGGGPDLLVTGDNGDFTLRLEDVSQAQAGTYTCHIHLQEQQLNATVTLAIITVTPKSFGSPGSLGKLLCEVTPVSGQERFVWSSLDTPSQRSFSGPWLEAQEAQLLSQPWQCQLYQGERLLGAAVYFTELSSPGAQRSGRAPGALPAGHLLLFLTLGVLSLLLLVTGAFGFHLWRRQWRPRRFSALEQGIHPRRLRAR
0.92 | LAG-3 mutant Q13A (receptor) LQPGAEVPVVWAAEGAPAQLPCSPTIPLQDLSLLRRAGVTWQHQPDSGPPAAAPGHPLAPGPHPAAPSSWGPRPRRYTVLSVGPGGLRSGRLPLQPRVQLDERGRQRGDFSLWLRPARRADAGEYRAAVHLRDRALSCRLRLRLGQASMTASPPGSLRASDWVILNCSFSRPDRPASVHWFRNRGQGRVPVRESPHHHLAESFLFLPQVSPMDSGPWGCILTYRDGFNVSIMYNLTVLGLEPPTPLTVYAGAGSRVGLPCRLPAGVGTRSFLTAKWTPPGGGPDLLVTGDNGDFTLRLEDVSQAQAGTYTCHIHLQEQQLNATVTLAIITVTPKSFGSPGSLGKLLCEVTPVSGQERFVWSSLDTPSQRSFSGPWLEAQEAQLLSQPWQCQLYQGERLLGAAVYFTELSSPGAQRSGRAPGALPAGHLLLFLTLGVLSLLLLVTGAFGFHLWRRQWRPRRFSALEQGIHPRRLRAR
0.18 | LAG-3 mutant R88A (receptor) LQPGAEVPVVWAQEGAPAQLPCSPTIPLQDLSLLRRAGVTWQHQPDSGPPAAAPGHPLAPGPHPAAPSSWGPRPRRYTVLSVGPGGLASGRLPLQPRVQLDERGRQRGDFSLWLRPARRADAGEYRAAVHLRDRALSCRLRLRLGQASMTASPPGSLRASDWVILNCSFSRPDRPASVHWFRNRGQGRVPVRESPHHHLAESFLFLPQVSPMDSGPWGCILTYRDGFNVSIMYNLTVLGLEPPTPLTVYAGAGSRVGLPCRLPAGVGTRSFLTAKWTPPGGGPDLLVTGDNGDFTLRLEDVSQAQAGTYTCHIHLQEQQLNATVTLAIITVTPKSFGSPGSLGKLLCEVTPVSGQERFVWSSLDTPSQRSFSGPWLEAQEAQLLSQPWQCQLYQGERLLGAAVYFTELSSPGAQRSGRAPGALPAGHLLLFLTLGVLSLLLLVTGAFGFHLWRRQWRPRRFSALEQGIHPRRLRAR
1.02 | LAG-3 mutant R107K (receptor) LQPGAEVPVVWAQEGAPAQLPCSPTIPLQDLSLLRRAGVTWQHQPDSGPPAAAPGHPLAPGPHPAAPSSWGPRPRRYTVLSVGPGGLRSGRLPLQPRVQLDERGRQKGDFSLWLRPARRADAGEYRAAVHLRDRALSCRLRLRLGQASMTASPPGSLRASDWVILNCSFSRPDRPASVHWFRNRGQGRVPVRESPHHHLAESFLFLPQVSPMDSGPWGCILTYRDGFNVSIMYNLTVLGLEPPTPLTVYAGAGSRVGLPCRLPAGVGTRSFLTAKWTPPGGGPDLLVTGDNGDFTLRLEDVSQAQAGTYTCHIHLQEQQLNATVTLAIITVTPKSFGSPGSLGKLLCEVTPVSGQERFVWSSLDTPSQRSFSGPWLEAQEAQLLSQPWQCQLYQGERLLGAAVYFTELSSPGAQRSGRAPGALPAGHLLLFLTLGVLSLLLLVTGAFGFHLWRRQWRPRRFSALEQGIHPRRLRAR
1 | wild-type LAG-3 (lymphocyte activation gene 3 protein) (receptor) LQPGAEVPVVWAQEGAPAQLPCSPTIPLQDLSLLRRAGVTWQHQPDSGPPAAAPGHPLAPGPHPAAPSSWGPRPRRYTVLSVGPGGLRSGRLPLQPRVQLDERGRQRGDFSLWLRPARRADAGEYRAAVHLRDRALSCRLRLRLGQASMTASPPGSLRASDWVILNCSFSRPDRPASVHWFRNRGQGRVPVRESPHHHLAESFLFLPQVSPMDSGPWGCILTYRDGFNVSIMYNLTVLGLEPPTPLTVYAGAGSRVGLPCRLPAGVGTRSFLTAKWTPPGGGPDLLVTGDNGDFTLRLEDVSQAQAGTYTCHIHLQEQQLNATVTLAIITVTPKSFGSPGSLGKLLCEVTPVSGQERFVWSSLDTPSQRSFSGPWLEAQEAQLLSQPWQCQLYQGERLLGAAVYFTELSSPGAQRSGRAPGALPAGHLLLFLTLGVLSLLLLVTGAFGFHLWRRQWRPRRFSALEQGIHPRRLRAR
0.91 | LAG-3 mutant H63F (receptor) LQPGAEVPVVWAQEGAPAQLPCSPTIPLQDLSLLRRAGVTWQHQPDSGPPAAAPGHPLAPGPFPAAPSSWGPRPRRYTVLSVGPGGLRSGRLPLQPRVQLDERGRQRGDFSLWLRPARRADAGEYRAAVHLRDRALSCRLRLRLGQASMTASPPGSLRASDWVILNCSFSRPDRPASVHWFRNRGQGRVPVRESPHHHLAESFLFLPQVSPMDSGPWGCILTYRDGFNVSIMYNLTVLGLEPPTPLTVYAGAGSRVGLPCRLPAGVGTRSFLTAKWTPPGGGPDLLVTGDNGDFTLRLEDVSQAQAGTYTCHIHLQEQQLNATVTLAIITVTPKSFGSPGSLGKLLCEVTPVSGQERFVWSSLDTPSQRSFSGPWLEAQEAQLLSQPWQCQLYQGERLLGAAVYFTELSSPGAQRSGRAPGALPAGHLLLFLTLGVLSLLLLVTGAFGFHLWRRQWRPRRFSALEQGIHPRRLRAR
